Measured values: US9724426B2, “Agents, uses and methods” (AFFINICON APS, priority 2009, dated 2017)
“And” between values parts separate entries of the source, which are not always exact repeats. Equal entries are not always repeated.

Legend:
[1] = target: T1, CD163 receptor on surface of human macrophages (Homo sapiens, UniProt Q86VB7); assay: Binding and uptake of fluorescently labeled CD163 antibodies in monocyte-derived macrophages; assay type: cell-based; settings: 0 min; macrophages stimulated with 200 nM dexamethasone
T1 construct: endogenous in cells; host or cells: human peripheral blood monocytes, monocyte-derived macrophages, blood dendritic cells
Procedure: Monocytes were isolated from PBMC by negative selection using magnetic beads from Dynal (Dynabeads® MyPure™ Monocyte Kit 2; Invitrogen A/S, Taastrup, Denmark) according to instructions provided by the manufacturer. Monocyte preparations were more than 95% (CD14^+) pure determined by flow cytometry. The isolated cells were washed twice with phosphate-buffered saline. Monocyte-derived macrophages (MDMs) were prepared by cell culture of monocytes (approximately 1×10^7 cells) for 4 days in 5% CO2 and 37° C. in RPMI 1640 media (RPMI 1640+25 mM HEPES+I-glutamine) (Invitrogen Corporation, Carlsbad, Calif., USA) with 20% FCS containing 100 ng/ml of M-CSF. MDMs were then detached from the flask by incubation with cell dissociation buffer (Invitrogen A/S, Taastrup, Denmark) for 30 minutes at 40 °C, then flushed, and scraped. […]
MDMs or CHO cells were washed with 4° C. cold D-PBS, pH 7.4, containing 1% BSA in Lab-Tek™ Chamber Slides (Thermo Fisher Scientific, Roskilde, Denmark). […] Fluorescence was visualized using a Zeiss Axiovert 200M microscope (Carl Zeiss GmbH, Jena, Germany) with an ×100 oil-immersion objective. […] Alternatively, immunostained cells were analyzed by confocal immunofluorescence microscopy using a Zeiss LSM-510 confocal microscope (Carl Zeiss GmbH, Jena, Germany). […]

[2] = target: T2, CD163 on CD14+ peripheral blood monocytes (Homo sapiens, UniProt Q86VB7); assay: Quantitative flow cytometry of monocyte surface CD163 expression with different anti-CD163 clones; assay type: cell-based
T2 construct: endogenous in cells; host or cells: human peripheral blood monocytes, monocyte-derived macrophages, blood dendritic cells
Procedure: Freshly drawn peripheral whole blood samples or PBMC (approx. 3×10^6 cells) were stained with isotype-matched control antibody or a relevant antibody for one hour at 4° C. in the dark. When staining whole blood, erythrocytes were lysed for 15 min with 4° C. cold solution of ammonium chloride. When indirect immunofluoresence staining was required, cells were initially incubated with unconjugated primary CD163 antibody for one hour at 4° C., washed three times with D-PBS, pH 7.4, followed by incubation with goat anti-mouse-conjugated Alexa-Fluor® 488 (1:200 dilution; Molecular Probes, Invitrogen, Carlsbad, Calif., USA) for one hour at 4° C. in the dark. The stained cells were washed twice three D-PBS, pH 7.4, re-suspended in 400 μl FACSflow (Becton Dickinson, San Jose, Calif., USA), and kept on ice until analysis. All samples were analyzed using a FACSCalibur flow cytometer and compensated for spectral overlap using FlowJo for Macintosh software version 8.3 (TreeStar, San Carlos, Calif.). For CD163 density quantitation, flow cytometric estimation of antibodies bound/cell (ABCs) was performed using Quantibrite PE beads (Becton Dickinson, San Jose, Calif., USA) as recommended by the manufacturer. After the cells were stained, as detailed, a set of 4 pre-calibrated fluorescently labeled beads was used for standardization before the samples were acquired. The Quantibrite PE beads were run at the same instrument settings as the assay, and the linear regression obtained using the Quantibrite PE beads was used to convert the FL2 linear fluorescence staining of cell population into the number of (CD163) PE molecules bound per cell (ABC).

T2 sequence (Q86VB7 42-1156): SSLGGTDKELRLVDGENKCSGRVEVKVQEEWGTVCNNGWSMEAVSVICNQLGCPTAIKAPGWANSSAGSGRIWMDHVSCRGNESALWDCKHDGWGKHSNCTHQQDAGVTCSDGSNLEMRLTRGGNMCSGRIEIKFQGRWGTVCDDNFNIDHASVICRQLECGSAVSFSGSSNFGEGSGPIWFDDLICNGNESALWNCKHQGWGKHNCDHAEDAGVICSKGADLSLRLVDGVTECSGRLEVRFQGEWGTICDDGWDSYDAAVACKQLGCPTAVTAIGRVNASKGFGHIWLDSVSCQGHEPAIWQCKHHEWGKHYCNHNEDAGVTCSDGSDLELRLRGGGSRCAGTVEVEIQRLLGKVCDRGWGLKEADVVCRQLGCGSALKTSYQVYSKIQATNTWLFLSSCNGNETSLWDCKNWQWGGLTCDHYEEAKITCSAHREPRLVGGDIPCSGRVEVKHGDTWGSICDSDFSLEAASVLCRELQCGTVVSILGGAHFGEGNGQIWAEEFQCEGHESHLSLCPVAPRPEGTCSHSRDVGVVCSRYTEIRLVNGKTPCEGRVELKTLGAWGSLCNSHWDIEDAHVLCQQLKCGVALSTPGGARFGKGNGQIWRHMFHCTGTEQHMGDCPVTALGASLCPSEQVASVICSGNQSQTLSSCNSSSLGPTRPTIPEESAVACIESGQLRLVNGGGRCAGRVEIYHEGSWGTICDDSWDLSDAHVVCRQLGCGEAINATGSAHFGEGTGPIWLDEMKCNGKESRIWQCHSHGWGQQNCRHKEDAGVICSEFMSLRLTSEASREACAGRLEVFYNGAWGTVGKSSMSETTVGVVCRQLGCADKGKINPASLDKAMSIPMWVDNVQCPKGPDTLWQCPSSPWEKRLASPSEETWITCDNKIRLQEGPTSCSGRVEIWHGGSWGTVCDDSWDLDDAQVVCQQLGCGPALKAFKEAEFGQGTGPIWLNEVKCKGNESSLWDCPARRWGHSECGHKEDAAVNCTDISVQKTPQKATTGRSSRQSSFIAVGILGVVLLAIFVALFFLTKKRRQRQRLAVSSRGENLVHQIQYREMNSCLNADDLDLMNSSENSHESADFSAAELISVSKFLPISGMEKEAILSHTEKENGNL
T1 sequence (Q86VB7 42-1156): as above

B1: Mac2-158: murine anti-human CD163 mAb binding SRCR domain 1; VH SEQ ID NO:20, VL SEQ ID NO:21; IQ Products (antibody, V domains shown)
VH: DVQLQESGPGLVKPSQSLSLTCTVTGYSITSDYAWNWIRQFPGNKLEWMGYITYSGITNYNPSLKSQISITRDTSKNQFFLQLNSVTTEDTATYYCVSGTYYFDYWGQGTTLTVSS
VL: SVVMTQTPKSLLISIGDRVTITCKASQSVSSDVAWFQQKPGQSPKPLIYYASNRYTGVPDRFTGSGYGTDFTFTISSVQAEDLAVYFCGQDYTSPRTFGGGTKLEIKRA
modifications: Mac2-158 VH sequence; Mac2-158 VL sequence
notes: IQ Products
For B1, the “cell surface staining (immunofluorescence)” value [1] was “pronounced cell surface staining”, the “density of CD163 receptors per monocyte” value ([2]; citrate stabilized whole blood) was 17,726 and the “fraction of CD14+ monocytes stained positive for CD163” value (“fraction” below) ([2]; citrate stabilized whole blood) was 83.97%. For the same molecule, the “fraction” value ([2]; freshly drawn EDTA stabilized whole blood) was 84.06% and 87.23%, the “density of CD163 receptors per monocyte” value ([2]; heparin stabilized whole blood) was 18,929 and the “fraction” value ([2]; heparin stabilized whole blood) was 84.43%.
